This data set is described as follows: label from the status in PepcDB records.
“AALAAKVRTLGPSMTRSMQRVAEAVAGDPAGCAALTVTGLAELTGTSEATVVRTARLLGYPGYRDLRLALAGLAAQQQSGRAPAITTDIAVDDPIADVVAKLAYDEQQTL”: the protein production result is on record as “failed”.

Take “MVHAFLIHTLRAPNTEDTGLCRVLYSCVFGAEKSPDDPRPHGAERDRLLRKEQILAVARQVESMCRLQQQASGRPPMDLQPQSSDEQVPLHEAPRGAFRLAAENPFQEPRTVVWLGVLSLGFALVLDAHENLLLAEGTLRLLTRLLLDHLRLLAPSTSLLLRADRIEGILTRFLPHGQLLFLNDQFVQGLEKEFSAAWPR”: the protein production result is listed as “failed”.

Take “MPPGVAVCFSSLFIRLVCMAFLTSSDKALWHLALPMIFSNITVPLLGLVDTAVIGHLDSPVYLGGVAVGATATSFLFMLLLFLRMSTTGLTAQAYGAKNPQALARTLVQPLLLALGAGALIALLRTPIIDLALHIVGGSEAVLEQARRFLEIRWLSAPASLANLVLLGWLLGVQYARAPVILLVVGNILNIVLDVWLVMGLHMNVQGAALATVIAEYATLLIGLLMVRKILKLRGISGEMLKTAWRGNFRRLLALNRDIMLRSLLLQLCFGAITVLGARLGSDIIAVNAVLMTLLTFTAYALDGFAYAVEAHSGQAYGARDGSQLLDVWRAACRQSGIVALLFSVVYLLAGEHIIALLTSLTQIQQLADRYLIWQVILPVVGVWCYLLDGMFIGATRATEMRNSMAVAAAGFALTLLTLPWLGNHALWLALTVFLALRGLSLAAIWRRHWRNGTWFAAT”: the protein production result was “failed”.

For the sequence “LNDLKESSNNRKARVLYDYDAANSTELSLLADEVITVFSVVGMDSDWLMGERGNQKGKVPITYLELLN”, the protein production entry was “not failed”.

For “MTQKEWPLWEVFVRSKQGLEHKHCGSLHATDAQQALHMARDVYTRRQEGVSIWVVPSTAITASAPEEKPELFDPMADKIYRHPTFYQLPDEVNHM”, the protein production result is listed as “not failed”.

“SASLLDKAKDFVADKLTAIPKPEGSVTDVDLKDVNRDSVEYLAKVSVTNPYSHSIPICEISFTFHSAGREIGKGKIPDPGSLKAKDMTALDIPVVVSYSILFNLARDVGVDWDIDYELQIGLTIDLPVVGEFTIPISSKGEIKLPTFKDFF”: the protein production entry is “failed”.

In the case of “MMQDCEKLLDEPGRLAAVRRYAVLDTAPEEPFDKLTRLVCNVLEVPYAAVTLIDADRQWFKSLVGLSGSEGPRHESFCTHTIKTRDPMIVPDATLDPRFRDSPLVTGAAGIRSYLGVPLETPDGYNLGALCAVDTAPRTFSTSQIEIMKSFASLVLDELELRQIALSDALTGAMTRRGWLAAVEKEMARGARQGTQAAIVLFDVDHFKAINDTHGHAVGDAVLQALTRRCLLHLGPADALGRIGGEEFAVLVPDAGLPEAMELAERLRRSFSDAPIEVAGQALRVTASFGVQGLDGDTGNAGSWLAAADRRLYEAKAAGRNRCHGG”, the protein production entry was “failed”.

As for “IFLDSNMSLDVVWHVYSNMMSPEIEQFSNSVPKSPIRELLELEPETAKFGKPEKLADGRRVRVTVDVFCKGTFRGIGRNYRIAKCTAAKCALRQLKKQGLIAKKD”, the protein production entry was “failed”.

Take “MGRAFEYRRAAKEKRWDKMSKVFPKLAKAITLAAKDGGSEPDTNAKLRTAILNAKAQNMPKDNIDAAIKRASSKEGNLSEITYEGKANFGVLIIMECMTDNPTRTIANLKSYFNKTQGASIVPNGSLEFMFNRKSVFECLKNEVENLKLSLEDLEFALIDYGLEELEEVEDKIIIRGDYNSFKLLNEGFESLKLPILKASLQRIATTPIELNDEQMELTEKLLDRIEDDDDVVALYTNIE”: the protein production result is listed as “failed”.

Consider “MINQNATYMEESAQSAVDNFGLGFNLGNTLDANGCGTGKPVATYETFWGQPETTQDMMTFLMQNGFNAVRIPVTWYEHMDAEGNVDEAWMMRVKAIVEYAMNAGLYAIVNVHHDTAAGSGAWIKADTDVYAATKEKFKKLWTQIANALADYDQHLLFEGYNEMLDGNNSWDEPQKASGYEALNNYAQDFVDAVRATGGNNATRNLIVNTYAAAKGENVLNNFMLPTDAVNNHLIVQVHSYDPWNFFNTKTTWDSECHNTLTEIFSALSKKFTTIPYIIGEYGTHGESDISVSKSSPAEKIKLAADQAADMVKLAKDHHSATFYWMSIFDGSDRIQPQWSLPTVVEAMQEAYNN”, for which the protein production result is recorded as “not failed”.

“MVEVESDSVAERDRSSFLAGHDAIRLAKSCVDSPPERWYAALYQVYADLTKLRCWSNVEVVYSDSATFPTGLLGPLFEEDSMVQELHSAQCILGSERACFHVRCCIVGSPPSGRAINALSPQSETRTEERIITSRREPEVVIAVPMHAMLKLSNLDQALRMSSHIEGIVKNRHVADSSASTHSTDRQAGSRKSSVIFGFVDEDTTTAYYRIREGACESNDRREFSTDDIASCLAQERT”: the protein production result is reported as “not failed”.

“MQRTGELPAEHVPVILESSGAGDFHLIDSGNGLKLEQYGDYRVVRPEAQALWRPLVPDRVWQNADAIFTGDTDEDGMGRWRFPKEALGETWPLSLLGVEFLGRFTAFRHVGVFPEQIVHWEWLKNAVETADRPLKVLNLFGYTGVASLVAAAAGAEVTHVDASKKAIGWAKENQVLAGLEQAPIRWICEDAMKFIQREERRGSTYDIILTDPPKFGRGTHGEVWQLFDHLPLMLDICREILSPKALGLVLTAYSIRASFYSMHELMRETMRGAGGVVASGELVIREAGLDGKTPGRVLSTSLFSRWEPK”: the protein production result is on record as “not failed”.

Turning to “MTCANCATDVIYMAERQNERDDRQKLKNISFAKKILLGLSMYVPSSTFKKIVLKLLGAHIGKNVYFGPGSLVLSNDYSSVYIENNVFVAPGVLINVNNFTVGENSHLGYQCLMVGESLKIGSRCNISNRTFIECSYSPILIEDDVTIGGCAMVSTHDGSYRQVYGLEMKAAPIYIRSKAFIGNNAIILPGIEIGRKVIVGAGAVVTKNAVANSVICGVPADKIRTMEVSNENITGN”, the protein production result is “failed”.

In the case of “MSMELFEVHEGKAKVLVPKAKTIYDSPVFYNPRMAPNRDVVVLLLNVLKPKIVLDALSATGIRGIRFALETPAEEIWMNDINELAYELMKKNVLLNFKGTLKENAKRAIFEGEKTIVINNDDANRLMAEKHRYFHFIDLDPFGSPMEFLDTALRSVKRKGILGVTATDGAPLCGAHPKACLRKYLAVPLRGELCHEVGTRILVGVIARYAAKYDLGMEVLLAYYKDHYFRAFVKLKDGAKKGDETLENLGYVYFDEKTGRFEVEKSFLSTRPNAYGPLWLGPLKNEKVVGEMLELLVSGFEVANYREVLKLLHMLHEELDIPLFYDTHALGKRLKIEPKKLGEIIKELKSMGYEATRTHFSPTGIKTNAPYEVFVEVMRKN”, the protein production entry is recorded as “failed”.

“MKFCSQCGGEVILRIPEGDTLPRYICPKCHTIHYQNPKVIVGCIPEWENKVLLCKRAIAPYRGKWTLPAGFMENNETLVQGAARETLEEANARVEIRELYAVYSLPHISQVYMLFRAKLLDLDFFPGIESLEVRLFGEQEIPWNDIAFRVIHDPLKRYMEERHHGQPAFHLGIINKPQAGSNSNE”: the protein production result is “not failed”.

Regarding “MVTFVLAITAISCLIWCFLLVGWGNFWRCDQVLNFDRPSTLQAYPSVAAIIPARDEASVLGQSLPSLLEQHYPGPLKIILVDDQSSDGTGAVAQRIASGLGHGDRLEVVSGQPLPPGWSGKLWAVEQGWQTVQLKKKGSDSWPEYIFLTDADIAHGPQTITALVEKAQRDNLALVSLMVLLRCESVWEKLLIPAFIFFFQKLYPFPLVNNPQRQTAAAAGGCILMQRSALQTIGGIGALKEALIDDCTLAQKVKAQKLPIWLGLTRANWSLRPYDSLETIWQMVSRTAYTQLNYNPLLLLGTLLGMALVYLTAPIALILAIIWGNAPLALLGAFTWMLMAIAYGPTLKFYGRSWLWGLTLPLIALLYSLMTLDSAWQHWRGQGGGWKGRIYPQGS”, the protein production result is “failed”.

In the case of “MARIRIEAPGTIVYETLMDVRIGDINYANHLGNDALLRIAQEARLRLFRDWGYVDELHIDGVGIVVADAAICYLSEAFLGDVLRILVGTADIHRKGLDFIYQVIDDNSGREVARLKTGIVFFDYPARQVALMPESFSAKLGQLEHHHHHH”, the protein production result is reported as “not failed”.

With “MATIQAFWRFSRPHTIIGTTLSVWAVYLLTILGDGNSVNSPASLDLVFGAWLACLLGNVYIVGLNQLWDVDIDRINKPNLPLANGDFSIAQGRWIVGLCGVASLAIAWGLGLWLGLTVGISLIIGTAYSVPPVRLKRFSLLAALCILTVRGIVVNLGLFLFFRIGLGYPPTLITPIWVLTLFILVFTVAIAIFKDVPDMEGDRQFKIQTLTLQIGKQNVFRGTLILLTGCYLAMAIWGLWAAMPLNTAFLIVSHLCLLALLWWRSRDVHLESKTEIASFYQFIWKLFFLEYLLYPLALWLPNFSNTIF”, the protein production result is reported as “failed”.

With “MEVSERIIIGNKISKITIIANIALSILKILAGVFGKSSALIADGMHSFSDILSTVVVMLGLKLSEKPADESHPYGHERIEPALTKILAVILLVTALMIFYCGLTTIIGGNYQIPGNITIIAALISIFTKEWMYKYTKKGAEQIESSALLADAWHHRSDAFSSVGTLIGVVGAKLGYPILDPIASIVISLFIAKMAFEIYFKALNQLLDRAADSKTIEEIKKIILSVDGVLEIDVLKTRIHSNKIYVDVEISVDKDLSLIEAHNISENVHSQIESKLKRVKHCMVHVNPYLK”, the protein production result is listed as “failed”.

With “CSGKEALDYFKEDPQMFDMYHTGYQQQMSNWPELPVNSIINWLLSNSSSLVVADFGCGDARIAKSVKNKVFSFDLVSKNPSVIACDMSNTSLESSSVDVAVFCLSLMGTNYSSYIKEAHRVLRPSGMLLIAEVKSRFDPNNGGADPKDFVKAVCDLGFTSVLKDFSNKMFILFHFKKK”, the protein production entry is recorded as “failed”.

As for “MKLFTTALFAIAFGIVIGLSFPSLWITEIWEPSNPRGAERLPSGIIASESDLYLRRLWGNPDEDLVKQPRYLATFTVGYNQRHNIDACVSKFSENFTIVLFHYDGVTSAWNDEFEWSRNAIHISVKKQTKWWYAKRFLHPDIVARYDYIFIWDEDLGVDHFNAEEYIHIVKKHDLEISQPGLDPETGFNWQITKRREHSEVHKETDEKLDWCSNPPRPPCAAFVEIMAPVFSRDAWRCVWHMIQNDLVHGWGLDFALRRCVEEPAFEKIGIVDSQWIVHQFIPSLGNQGKADNGKAPWQGVRDRCQMEWKMFENRVEAAEKDYFRSLQVESPSNSTTSH”, the protein production result was “failed”.

For “MHGTRRTRKDSPCMPAIHRAPLLRRREFRHEDRNGSLAPALDLIAWSRSAFGWLAHQPYLLLSLTSLFWAGNIVLGRAVAGHVPPVTLSCARWVGAMLLLLPFAWPHLRHDWRKLRAQWKLMIVLSATGFAINNALSYWGLQYTQALNALLMQSSGPLFVALWSLLLFGVRLTWMQATGIALSLLGVLTIILRGDFAALAGIELNRGDLMVAGALCAFGLYSALMPKRPATHPLSLIVVTTGCGALLLLPFSAWEYASGVRPSADWISVATLAYVVIFPSMLAYLCFNRGVALIGPNRSAPFLHLMPVFGSVMAIVLLGEKPELFHLAGYAMVVAGVFIAARR”, the protein production result was “failed”.

As for “MPTFLAALLTGLFNLCKSKLGYFVATAFVWLGINWGSYHFVISPLVEQLYTYVDSVGTAGGRFGELALRALGLLNFDRALTMIISAYVSRFAMLNGRLYLFKRGYGVAPPASPKHEPFIPPAG”, the protein production entry is “failed”.

On to “IGNVQYYLGFNLYDSRTKITKYDNEVGLLGKDSDDNLIYRKGMELGEIWGYTTDRLYTTEDFDSQGKLKNNIPKVEGYNPNPGDILYVDFDGNGIINNGKNTSNEPGDTRIIGNDTRRYQYGIRGGATWKGISLSFILQGVGKRDLWLMNELFYPHYDAYSTLFDSQLNYWTPEHTNSYFPRLYEKAEGNTKANQKPQTRFLQNGAYLSIRNISLSYTFPIKLIKPLGITNLSVFFGGENLFTFDHLPKGIDAERVVTDNLGQRGFTYPYMRQFSFGINLSL”, for which the protein production result is recorded as “failed”.

Values taken from a protein production outcome set (Wang et al. 2014).
